Experimental data: patent US20260109774A1 (JUNO THERAPEUTICS, published 2026)
Values belong to the binder of their own block, whether it stands above or below them.

What was measured:
[1] = molecular target: T1, recombinant human BCMA-hFc (human, UniProt Q02223 1-54, biotinylated in the kinetic exclusion assay of paragraph 546); test: KinExA kinetic exclusion assay, CAR-expressing Jurkat cells titrated into 20 nM or 1 nM biotinylated rhBCMA hFc
T1 construct: also called rhBCMA hFc; recombinant human BCMA fusion protein
T1 sequence: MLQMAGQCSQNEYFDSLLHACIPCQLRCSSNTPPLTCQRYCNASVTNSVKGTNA

[2] = molecular target: T2, BCMA-Fc (soluble human BCMA fused at its C-terminus to an Fc region of IgG) (human, UniProt Q02223 1-54); test: flow cytometry, T cells transduced with O/SSE construct, CD4 gate, recombinant BCMA-Fc (rBCMA) staining against surrogate marker
T2 construct: also called hBCMA-Fc; hBMCA-Fc
T2 sequence: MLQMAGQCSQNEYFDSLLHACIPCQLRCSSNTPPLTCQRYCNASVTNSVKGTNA
Description: (§1) Lentiviral constructs containing anti-BCMA CAR-encoding polynucleotides with starting and optimized sequences, respectively, as described in Example 3, were transduced into T cells and transduced cells were analyzed for transduction (based on expression of a surrogate marker) and for CAR expression based on binding to recombinant BCMA-Fc fusion protein by flow cytometry.

[3] = molecular target: T2, BCMA-Fc (soluble human BCMA fused at …); test: flow cytometry, T cells transduced with O/SSE construct, CD8 gate, recombinant BCMA-Fc (rBCMA) staining against surrogate marker
Description: as §1

[4] = molecular target: T2, BCMA-Fc (soluble human BCMA fused at …); test: flow cytometry, T cells transduced with Non-SSE construct, CD4 gate, recombinant BCMA-Fc (rBCMA) staining against surrogate marker
Description: as §1

[5] = molecular target: T2, BCMA-Fc (soluble human BCMA fused at …); test: flow cytometry, T cells transduced with Non-SSE construct, CD8 gate, recombinant BCMA-Fc (rBCMA) staining against surrogate marker
Description: as §1

[6] = molecular target: T1, recombinant human BCMA-hFc; test: kinetics exclusion assay, CAR expressed on a Jurkat T cell line, rhBCMA hFc in solution; CAR on Jurkat cells, kinetics exclusion assay (not the scFv-Fc by Biacore)
Description: A CAR with a BCMA-55-derived scFv binding domain, a modified IgG-derived CH2-CH3-hinge spacer, a CD28 transmembrane domain, and 41BB and CD3zeta endodomain, was expressed in a Jurkat T cell line. Kinetics of binding by the CAR to recombinant human BCMA-hFc (rhBCMA hFc) was assessed using a kinetics exclusion assay. Affinity of binding of an Fc fusion protein containing the scFv portion of the CAR (scFv-Fc) to recombinant human BCMA fusion protein was also assessed using a Biacore-based assay.

[7] = molecular target: T3, human BCMA peptide 30SNTPPLTCQR39 (human); test: CLIPS peptide array, ELISA
T3 construct: Could be recognized in a linear form
T3 peptide: SNTPPLTCQR
Description: (§2) Mapping was carried out using anti-BCMA scFv clones, such as those fused with mouse Fc (scFv-mFc).
(§3) Linear and conformational peptide libraries of amino acid residues 1-54 of human BCMA (set forth as amino acid residues 1-54 of SEQ ID NO:367) were generated based on a combinatorial matrix design. Linear peptides and structural mimetics including single loop, a-helix, 3-turn, combinatorial and linear disulfide bridge mimics, and discontinuous epitope mimics were used, along with positive and negative control peptides, on an amino-functionalized solid support.
(§4) Affinities for binding to the peptides in the epitope library were determined using ELISA. The peptide arrays were incubated with a solution containing the scFv overnight at 4° C. Affinity information was used in iterative screens to define the sequence and conformation of epitopes. Heat maps of affinity information for two or more loops were generated.

[8] = molecular target: T4, human B-cell maturation antigen (BCMA) on cells (human, UniProt Q02223 1-184); test: flow cytometry on BCMA-expressing HEK293 cells vs control cells, crude lysate or bacterial supernatant; clone listed in Table E2
T4 construct: Recombinant on HEK293 or K562 cells, or endogenous on cell lines (H929, RPMI 8226, OPM2, MM1S, Daudi); also called hBCMA; huBCMA
T4 chain: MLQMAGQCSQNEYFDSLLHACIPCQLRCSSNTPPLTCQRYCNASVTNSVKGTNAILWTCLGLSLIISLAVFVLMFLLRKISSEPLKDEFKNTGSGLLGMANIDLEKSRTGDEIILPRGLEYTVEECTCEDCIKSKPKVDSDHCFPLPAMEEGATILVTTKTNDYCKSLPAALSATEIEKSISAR
Description: Specific binding of resulting scFv clones to BCMA-expressing HEK293 cells, as compared to control cells not expressing BCMA, was assessed by flow cytometry either with in vitro translated crude cell lysate or with bacterially-produced supernatant.

[9] = molecular target: T5, human BCMA amino acid residues 1-54 (linear and conformational peptide libraries) (human, UniProt Q02223 1-54); test: CLIPS peptide array, ELISA
T5 construct: Presented as CLIPS peptide arrays (linear peptides and structural mimetics) on a solid support
T5 sequence: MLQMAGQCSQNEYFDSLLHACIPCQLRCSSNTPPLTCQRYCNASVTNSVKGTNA
Description: as §2, §3, §4

Kd [1]: ~1.46 nM | % of cells in Q1 (rBCMA+ marker-) [2]: 1.9% | % of cells in Q3 (rBCMA- marker+) [2]: 4.89% | % of cells in Q4 (rBCMA- marker-) [2]: 43% | % of cells in Q1 (rBCMA+ marker-) [3]: 2.47% | % of cells in Q3 (rBCMA- marker+) [3]: 6.39% | % of cells in Q4 (rBCMA- marker-) [3]: 47.8% | % of cells in Q1 (rBCMA+ marker-) [4]: 8.66% | % of cells in Q3 (rBCMA- marker+) [4]: 6.35% | % of cells in Q4 (rBCMA- marker-) [4]: 40.9% | % of cells in Q1 (rBCMA+ marker-) [5]: 7.95% | % of cells in Q3 (rBCMA- marker+) [5]: 6.75% | % of cells in Q4 (rBCMA- marker-) [5]: 48.8% | Kd [6]: ~1 nM
B1: BCMA-55-LS CAR (other)
chain: QSALTQPASVSASPGQSIAISCTGTSSDVGWYQQHPGKAPKLMIYEDSKRPSGVSNRFSGSKSGNTASLTISGLQAEDEADYYCSSNTRSSTLVFGGGTKLTVLGSRGGGGSGGGGSGGGGSLEMAEVQLVQSGAEMKKPGASLKLSCKASGYTFIDYYVYWMRQAPGQGLESMGWINPNSGGTNYAQKFQGRVTMTRDTSISTAYMELSRLRSDDTAMYYCARSQRDGYMDYWGQGTLVTVSSESKYGPPCPPCPAPPVAGPSVFLFPPKPKDTLMISRTPEVTCVVVDVSQEDPEVQFNWYVDGVEVHNAKTKPREEQFQSTYRVVSVLTVLHQDWLNGKEYKCKVSNKGLPSSIEKTISKAKGQPREPQVYTLPPSQEEMTKNQVSLTCLVKGFYPSDIAVEWESNGQPENNYKTTPPVLDSDGSFFLYSRLTVDKSRWQEGNVFSCSVMHEALHNHYTQKSLSLSLGKMFWVLVVVGGVLACYSLLVTVAFIIFWVKRGRKKLLYIFKQPFMRPVQTTQEEDGCSCRFPEEEEGGCELRVKFSRSADAPAYQQGQNQLYNELNLGRREEYDVLDKRRGRDPEMGGKPRRKNPQEGLYNELQKDKMAEAYSEIGMKGERRRGKGHDGLYQGLSTATKDTYDALHMQALPPR
notes: Chimeric antigen receptor on T cells or Jurkat cells; also called BCMA-55-LS-O/SSE CAR; BCMA-55-LS CAR O/SSE

binding result [7]: binds | binding result [8]: binds
B2: BCMA-25 scFv (scFv)
scFv: EVQLVQSGGGLVQPGRSLRLSCTASGFTFGDYAMSWFRQAPGKGLEWVGFIRSKAYGGTTEYAASVKGRFTISRDDSKSIAYLQMNSLKTEDTAVYYCAAWSAPTDYWGQGTLVTVSSGGGGSGGGGSGGGGSDIQMTQSPAFLSASVGDRVTVTCRASQGISNYLAWYQQKPGNAPRLLIYSASTLQSGVPSRFRGTGYGTEFSLTIDSLQPEDFATYYCQQSYTSRQTFGPGTRLDIK

binding result [9]: binds | binding result [8]: binds
B3: BCMA-26 scFv (scFv)
scFv: EVQLVESGGGLVKPGGSLRLSCAASGFTFSDYYMSWIRQAPGKGLEWVSYISSSGSTIYYADSVKGRFTISRDNAKNSLYLQMNSLRAEDTAVYYCAKVDGPPSFDIWGQGTMVTVSSGGGGSGGGGSGGGGSSYVLTQPPSVSVAPGQTARITCGANNIGSKSVHWYQQKPGQAPMLVVYDDDDRPSGIPERFSGSNSGNTATLTISGVEAGDEADYFCHLWDRSRDHYVFGTGTKLTVL

binding result [9]: binds | binding result [8]: binds
B4: BCMA-9 scFv (scFv)
scFv: EVQLVQSGGGLVKPGGSLRLSCAASGFTFSDYYMSWIRQAPGKGLEWVSYISSSGSTIYYADSVKGRFTISRDNAKNSLYLQMNSLRAEDTAVYYCARVDGDYVDDYWGQGTLVTVSSGGGGSGGGGSGGGGSSYELTQPPSVSVAPGQTARVTCGANNIGSKSVHWYQQKPGQAPMLVVYDDDDRPSGIPERFSGSNSGNTATLTISGVEAGDEADYFCHVWDRSRDHYVFGTGTKLTVL

binding result [7]: binds | binding result [8]: binds
B5: BCMA-1 scFv (scFv)
scFv: QVQLVQSGGGLVQPGRSLRLSCTASGFTFGDYAMSWFRQAPGKGLEWVGFIRSKAYGGTTEYAASVKGRFTISRDDSKSIAYLQMNSLKTEDTAVYYCAAWSAPTDYWGQGTLVTVSSGGGGSGGGGSGGGGSDIVMTQSPDSLSVSPGERATISCKSSQSVLSTSNNKNYLAWYQQKPGQPPRLLLYWASTREAGVPDRFSGSGSGTDFTLTISSLQAEDVAVYYCQQYFSSPYTFGHGTKLEIK

binding result [7]: binds | binding result [8]: binds
B6: BCMA-5 scFv (scFv)
scFv: QVQLVQSGGGLVQPGRSLRLSCTASGFTFGDYAMSWFRQAPGKGLEWVGFIRSKAYGGTTEYAASVKGRFTISRDDSKSIAYLQMNSLKTEDTAVYYCAAWSAPTDYWGQGTLVTVSSGGGGSGGGGSGGGGSDIVMTQSPDSLAVSLGERATINCKSSQSVLYSSNNKNYLAWYQQKPGQPPKLLIYWASTRESGVPDRFSGSGSGTDFTLTISSLQAEDVAVYYCQQYYSTPWTFGQGTKVDIK

binding result [9]: binds
B7: BCMA-52-scFv-mFc (Fc fusion, not shown: a dimerising Fc or GST)
chain: SYELTQPPSASGTPGQRVTMSCSGTSSNIGSHSVNWYQQLPGTAPKLLIYTNNQRPSGVPDRFSGSKSGTSASLAISGLQSEDEADYYCAAWDGSLNGLVFGGGTKLTVLGSRGGGGSGGGGSGGGGSLEMAEVQLVQSGAEVKKPGESLKISCKGSGYSFTSYWIGWVRQMPGKGLEWMGIIYPGDSDTRYSPSFQGHVTISADKSISTAYLQWSSLKASDTAMYYCARYSGSFDNWGQGTLVTVSS
notes: also called BCMA-52 scFv fused with mouse Fc

% of cells in Q1 (rBCMA+ marker-) [2]: 3.66% | % of cells in Q3 (rBCMA- marker+) [2]: 3.85% | % of cells in Q4 (rBCMA- marker-) [2]: 22.9% | % of cells in Q1 (rBCMA+ marker-) [3]: 3.89% | % of cells in Q3 (rBCMA- marker+) [3]: 5.38% | % of cells in Q4 (rBCMA- marker-) [3]: 28.3% | % of cells in Q1 (rBCMA+ marker-) [4]: 1.71% | % of cells in Q3 (rBCMA- marker+) [4]: 19.5% | % of cells in Q4 (rBCMA- marker-) [4]: 42.5% | % of cells in Q1 (rBCMA+ marker-) [5]: 2.88% | % of cells in Q3 (rBCMA- marker+) [5]: 24.3% | % of cells in Q4 (rBCMA- marker-) [5]: 41.1%
B8: BCMA-52-LS CAR (other)
chain: SYELTQPPSASGTPGQRVTMSCSGTSSNIGSHSVNWYQQLPGTAPKLLIYTNNQRPSGVPDRFSGSKSGTSASLAISGLQSEDEADYYCAAWDGSLNGLVFGGGTKLTVLGSRGGGGSGGGGSGGGGSLEMAEVQLVQSGAEVKKPGESLKISCKGSGYSFTSYWIGWVRQMPGKGLEWMGIIYPGDSDTRYSPSFQGHVTISADKSISTAYLQWSSLKASDTAMYYCARYSGSFDNWGQGTLVTVSSESKYGPPCPPCPAPPVAGPSVFLFPPKPKDTLMISRTPEVTCVVVDVSQEDPEVQFNWYVDGVEVHNAKTKPREEQFQSTYRVVSVLTVLHQDWLNGKEYKCKVSNKGLPSSIEKTISKAKGQPREPQVYTLPPSQEEMTKNQVSLTCLVKGFYPSDIAVEWESNGQPENNYKTTPPVLDSDGSFFLYSRLTVDKSRWQEGNVFSCSVMHEALHNHYTQKSLSLSLGKMFWVLVVVGGVLACYSLLVTVAFIIFWVKRGRKKLLYIFKQPFMRPVQTTQEEDGCSCRFPEEEEGGCELRVKFSRSADAPAYQQGQNQLYNELNLGRREEYDVLDKRRGRDPEMGGKPRRKNPQEGLYNELQKDKMAEAYSEIGMKGERRRGKGHDGLYQGLSTATKDTYDALHMQALPPR
notes: Chimeric antigen receptor on T cells; also called BCMA-52-LS-O/SSE CAR; BCMA-52-L CAR

binding result [7]: binds
B9: BCMA-23 scFv (scFv)
scFv: EVQLVESGGGLVKPGGSLRLSCAASGFTFSDYYMSWIRQAPGKGLEWVSYISSSGSTIYYADSVKGRFTISRDNAKNSLYLQMNSLRAEDTAVYYCAKVDGDYTEDYWGQGTLVTVSSGGGGSGGGGSGGGGSQSALTQPASVSGSPGQSITISCTGSSSDVGKYNLVSWYQQPPGKAPKLIIYDVNKRPSGVSNRFSGSKSGNTATLTISGLQGDDEADYYCSSYGGSRSYVFGTGTKVTVL
